Experimental data published in article PMC4335062, “Data-Driven Prediction and Design of bZIP Coiled-Coil Interactions” (PLoS Computational Biology, 2015).
Where “and” joins values, the source holds several entries; their conditions need not be identical. Identical values can stand only once. Each block holds one binder with its values, some of them ahead of it. Where no end group is shown, it is not given here.

Columns and labels:
MAF [1] = target: T1, MAF (Homo sapiens, UniProt O75444); test: FRET or BRET; direct-binding FRET in 384-well plates; rhodamine-labelled design (acceptor) titrated 0 to 1 uM into 10 nM fluorescein-labelled bZIP (donor); 150 mM KCl, 50 mM potassium phosphate pH 7.4, 0.1% Tween-20, 0.1% BSA; 23 °C
T1 sequence (O75444 whole entry): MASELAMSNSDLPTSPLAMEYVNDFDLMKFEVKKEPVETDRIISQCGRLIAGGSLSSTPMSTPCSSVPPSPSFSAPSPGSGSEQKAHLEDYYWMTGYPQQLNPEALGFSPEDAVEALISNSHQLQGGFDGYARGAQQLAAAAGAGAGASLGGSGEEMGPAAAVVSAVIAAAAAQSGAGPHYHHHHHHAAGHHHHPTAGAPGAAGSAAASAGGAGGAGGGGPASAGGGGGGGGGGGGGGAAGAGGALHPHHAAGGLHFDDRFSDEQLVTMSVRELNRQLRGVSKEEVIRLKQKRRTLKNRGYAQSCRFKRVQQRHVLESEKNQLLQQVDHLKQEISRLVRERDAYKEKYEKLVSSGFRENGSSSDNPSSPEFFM

ATF4 (human) [2] = target: ATF4 (human) (UniProt P18848); test: as above
Sequence of ATF4 (human) (P18848 whole entry): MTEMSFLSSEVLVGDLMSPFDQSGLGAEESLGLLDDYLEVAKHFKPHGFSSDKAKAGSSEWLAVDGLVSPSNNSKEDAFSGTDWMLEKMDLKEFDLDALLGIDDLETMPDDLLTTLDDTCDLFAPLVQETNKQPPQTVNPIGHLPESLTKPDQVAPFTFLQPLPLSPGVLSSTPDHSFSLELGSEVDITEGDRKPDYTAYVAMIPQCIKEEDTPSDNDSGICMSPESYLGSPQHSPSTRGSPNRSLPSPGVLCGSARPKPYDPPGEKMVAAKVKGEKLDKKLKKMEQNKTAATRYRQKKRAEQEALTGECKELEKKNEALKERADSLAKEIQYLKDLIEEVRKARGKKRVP

MAFF (human) [3] = target: MAFF (human) (UniProt Q9ULX9); test: as above
Sequence of MAFF (human) (Q9ULX9 whole entry): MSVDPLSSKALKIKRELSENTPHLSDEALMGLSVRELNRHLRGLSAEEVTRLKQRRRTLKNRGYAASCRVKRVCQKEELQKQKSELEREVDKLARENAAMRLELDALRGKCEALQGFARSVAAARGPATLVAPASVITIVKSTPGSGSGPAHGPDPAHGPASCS

ATF6B [4] = target: T2, ATF6B (Homo sapiens, UniProt Q99941); test: as above
T2 sequence (Q99941 whole entry): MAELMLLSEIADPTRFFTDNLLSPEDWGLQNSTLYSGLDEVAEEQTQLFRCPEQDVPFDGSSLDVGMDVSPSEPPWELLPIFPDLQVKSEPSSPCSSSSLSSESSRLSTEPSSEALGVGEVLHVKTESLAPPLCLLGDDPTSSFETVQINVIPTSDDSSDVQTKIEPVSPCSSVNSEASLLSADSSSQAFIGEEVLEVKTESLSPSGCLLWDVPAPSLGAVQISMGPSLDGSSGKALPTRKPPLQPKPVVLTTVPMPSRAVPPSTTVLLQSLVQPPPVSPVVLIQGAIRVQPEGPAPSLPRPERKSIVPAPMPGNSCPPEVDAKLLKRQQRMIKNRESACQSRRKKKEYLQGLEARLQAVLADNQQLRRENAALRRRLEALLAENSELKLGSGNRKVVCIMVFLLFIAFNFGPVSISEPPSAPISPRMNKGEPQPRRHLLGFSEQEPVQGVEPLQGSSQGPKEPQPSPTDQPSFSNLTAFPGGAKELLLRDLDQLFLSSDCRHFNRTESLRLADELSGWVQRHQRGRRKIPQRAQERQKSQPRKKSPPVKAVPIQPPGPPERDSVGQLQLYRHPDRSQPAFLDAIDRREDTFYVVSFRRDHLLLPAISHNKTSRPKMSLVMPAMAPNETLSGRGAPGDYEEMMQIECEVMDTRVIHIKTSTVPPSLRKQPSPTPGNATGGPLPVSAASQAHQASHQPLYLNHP

MAFB [5] = target: T3, MAFB (Homo sapiens, UniProt Q9Y5Q3); test: FRET or BRET; direct-binding FRET in 384-well plates; rhodamine-labelled design (acceptor) titrated 0 to 1 uM into 10 nM fluorescein-labelled bZIP (donor); 150 mM KCl, 50 mM potassium phosphate pH 7.4, 0.1% Tween-20, 0.1% BSA; 37 °C
T3 sequence (Q9Y5Q3 whole entry): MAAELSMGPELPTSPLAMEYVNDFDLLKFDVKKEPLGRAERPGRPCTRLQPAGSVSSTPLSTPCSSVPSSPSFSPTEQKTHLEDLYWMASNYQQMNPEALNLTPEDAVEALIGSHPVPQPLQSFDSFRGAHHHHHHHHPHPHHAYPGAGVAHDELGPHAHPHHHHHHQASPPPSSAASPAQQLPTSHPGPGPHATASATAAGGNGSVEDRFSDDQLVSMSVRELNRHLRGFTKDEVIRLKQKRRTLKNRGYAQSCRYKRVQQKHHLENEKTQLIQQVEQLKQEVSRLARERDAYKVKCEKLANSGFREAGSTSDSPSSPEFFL

FOS [6] = target: T4, FOS (Homo sapiens, UniProt P01100); test: as above
T4 sequence (P01100 whole entry): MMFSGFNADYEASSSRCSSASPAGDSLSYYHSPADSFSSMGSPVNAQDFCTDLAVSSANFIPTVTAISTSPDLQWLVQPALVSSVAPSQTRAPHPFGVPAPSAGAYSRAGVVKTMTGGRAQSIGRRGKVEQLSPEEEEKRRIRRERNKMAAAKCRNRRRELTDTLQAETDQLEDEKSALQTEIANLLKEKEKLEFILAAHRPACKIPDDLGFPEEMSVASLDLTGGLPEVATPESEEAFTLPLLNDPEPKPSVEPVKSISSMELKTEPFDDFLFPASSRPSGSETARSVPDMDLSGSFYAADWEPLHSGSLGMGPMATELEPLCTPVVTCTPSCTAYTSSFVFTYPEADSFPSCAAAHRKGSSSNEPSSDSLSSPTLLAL

BATF (human) = BATF (human) (UniProt Q16520); test: as above
Sequence of BATF (human) (Q16520 whole entry): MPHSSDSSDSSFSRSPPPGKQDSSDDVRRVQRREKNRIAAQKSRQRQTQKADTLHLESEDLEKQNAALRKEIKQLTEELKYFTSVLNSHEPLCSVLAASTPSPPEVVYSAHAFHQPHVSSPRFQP

BATF2 (human) = BATF2 (human) (UniProt Q8N1L9); test: as above
MAFF (human) [7] = target: MAFF (human) (UniProt Q9ULX9); test: as above
MAFB [8] = target: T3, MAFB; test: FRET or BRET; direct-binding FRET in 384-well plates; rhodamine-labelled design (acceptor) titrated 0 to 1 uM into 10 nM fluorescein-labelled bZIP (donor); 150 mM KCl, 50 mM potassium phosphate pH 7.4, 0.1% Tween-20, 0.1% BSA; 4 °C
MAF [9] = target: T1, MAF; test: as above
[10] = target: X-box binding protein 1 (human) (UniProt P17861); test: as above
Sequence of X-box binding protein 1 (human) (P17861 whole entry): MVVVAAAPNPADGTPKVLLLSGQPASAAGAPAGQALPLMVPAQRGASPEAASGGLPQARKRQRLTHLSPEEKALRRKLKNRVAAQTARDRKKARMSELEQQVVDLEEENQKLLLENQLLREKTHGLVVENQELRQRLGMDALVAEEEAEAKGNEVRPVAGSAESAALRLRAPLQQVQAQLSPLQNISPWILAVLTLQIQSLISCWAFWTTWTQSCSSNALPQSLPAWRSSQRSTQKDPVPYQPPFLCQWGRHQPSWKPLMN

ATF5 (human) = ATF5 (human) (UniProt Q9Y2D1); test: as above
Sequence of ATF5 (human) (Q9Y2D1 whole entry): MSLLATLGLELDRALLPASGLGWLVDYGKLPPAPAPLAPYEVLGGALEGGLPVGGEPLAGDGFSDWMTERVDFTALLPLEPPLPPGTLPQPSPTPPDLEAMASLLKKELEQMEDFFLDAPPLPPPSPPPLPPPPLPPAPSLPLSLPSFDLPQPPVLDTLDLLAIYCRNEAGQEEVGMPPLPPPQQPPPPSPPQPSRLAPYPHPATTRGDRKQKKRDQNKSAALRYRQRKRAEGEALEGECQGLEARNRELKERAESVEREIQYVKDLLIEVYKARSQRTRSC

JUN [11] = target: T5, JUN (Homo sapiens, UniProt P05412); test: as above
T5 sequence (P05412 whole entry): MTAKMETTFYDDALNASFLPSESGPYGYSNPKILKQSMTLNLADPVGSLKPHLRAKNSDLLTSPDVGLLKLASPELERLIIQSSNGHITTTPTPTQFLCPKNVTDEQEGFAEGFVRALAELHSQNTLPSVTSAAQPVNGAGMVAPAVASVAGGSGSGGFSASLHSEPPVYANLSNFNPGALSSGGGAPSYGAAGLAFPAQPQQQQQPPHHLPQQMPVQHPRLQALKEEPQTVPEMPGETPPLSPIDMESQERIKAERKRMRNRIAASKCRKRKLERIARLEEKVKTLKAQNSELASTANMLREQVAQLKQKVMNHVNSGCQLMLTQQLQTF

MAFF (human) [12] = target: MAFF (human) (UniProt Q9ULX9); test: as above
ATF2 (human) = ATF2 (human) (UniProt P15336); test: as above
Sequence of ATF2 (human) (P15336 whole entry): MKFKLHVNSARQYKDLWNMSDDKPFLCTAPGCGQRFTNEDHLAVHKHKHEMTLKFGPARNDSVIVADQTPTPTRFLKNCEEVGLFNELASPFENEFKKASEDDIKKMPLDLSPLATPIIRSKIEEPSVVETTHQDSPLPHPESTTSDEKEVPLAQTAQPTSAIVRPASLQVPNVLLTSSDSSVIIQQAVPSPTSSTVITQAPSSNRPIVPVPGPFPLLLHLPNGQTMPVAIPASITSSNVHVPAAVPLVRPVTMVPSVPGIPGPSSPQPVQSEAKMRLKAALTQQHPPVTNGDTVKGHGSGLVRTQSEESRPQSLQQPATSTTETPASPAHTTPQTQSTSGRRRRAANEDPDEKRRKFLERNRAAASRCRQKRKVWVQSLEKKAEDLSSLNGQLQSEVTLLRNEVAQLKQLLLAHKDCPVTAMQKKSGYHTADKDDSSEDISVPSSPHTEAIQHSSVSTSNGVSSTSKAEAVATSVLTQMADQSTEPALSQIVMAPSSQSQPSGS

ATF6B [13] = target: T2, ATF6B; test: as above
ATF4 (human) [14] = target: ATF4 (human) (UniProt P18848); test: FRET or BRET; direct-binding FRET in 384-well plates; rhodamine-labelled design (acceptor) titrated 0 to 1 uM into 10 nM fluorescein-labelled bZIP (donor); 150 mM KCl, 50 mM potassium phosphate pH 7.4, 0.1% Tween-20, 0.1% BSA; 37 °C
JUN [15] = target: T5, JUN; test: as above
JUN [16] = target: T5, JUN; test: FRET or BRET; direct-binding FRET in 384-well plates; rhodamine-labelled design (acceptor) titrated 0 to 1 uM into 10 nM fluorescein-labelled bZIP (donor); 150 mM KCl, 50 mM potassium phosphate pH 7.4, 0.1% Tween-20, 0.1% BSA; 23 °C
MAFG = MAFG (Homo sapiens, UniProt O15525); test: FRET or BRET; direct-binding FRET in 384-well plates; rhodamine-labelled design (acceptor) titrated 0 to 1 uM into 10 nM fluorescein-labelled bZIP (donor); 150 mM KCl, 50 mM potassium phosphate pH 7.4, 0.1% Tween-20, 0.1% BSA; 37 °C
Sequence of MAFG (O15525 whole entry): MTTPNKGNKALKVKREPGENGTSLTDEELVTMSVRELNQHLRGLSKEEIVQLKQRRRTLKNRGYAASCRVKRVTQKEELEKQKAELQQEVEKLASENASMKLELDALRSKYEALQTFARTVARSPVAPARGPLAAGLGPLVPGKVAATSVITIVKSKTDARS

CREB1 (human) = CREB1 (human) (UniProt P16220); test: as above
NFE2 (human) = NFE2 (human) (UniProt Q16621); test: as above
Sequence of NFE2 (human) (Q16621 whole entry): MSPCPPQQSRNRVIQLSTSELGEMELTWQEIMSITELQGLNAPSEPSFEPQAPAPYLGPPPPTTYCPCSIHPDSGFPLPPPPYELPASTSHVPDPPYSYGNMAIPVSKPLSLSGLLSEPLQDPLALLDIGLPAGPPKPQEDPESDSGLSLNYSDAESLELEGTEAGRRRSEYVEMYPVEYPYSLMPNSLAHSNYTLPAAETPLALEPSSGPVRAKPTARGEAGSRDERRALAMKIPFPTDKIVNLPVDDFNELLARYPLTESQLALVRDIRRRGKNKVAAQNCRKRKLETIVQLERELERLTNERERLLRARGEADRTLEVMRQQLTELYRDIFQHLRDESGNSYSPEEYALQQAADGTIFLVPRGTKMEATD

NFE2L3 (human) = NFE2L3 (human) (UniProt Q9Y4A8); test: as above
[17] = target: Activating Transcription Factor (ATF) 3 (human) (UniProt P18847); test: as above
Sequence of Activating Transcription Factor (ATF) 3 (human) (P18847 whole entry): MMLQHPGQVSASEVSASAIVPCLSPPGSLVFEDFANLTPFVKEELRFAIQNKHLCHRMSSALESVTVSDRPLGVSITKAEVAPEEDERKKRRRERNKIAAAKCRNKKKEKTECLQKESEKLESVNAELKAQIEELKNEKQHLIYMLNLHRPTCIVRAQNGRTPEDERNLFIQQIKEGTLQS

[18] = target: X-box binding protein 1 (human) (UniProt P17861); test: as above
ATF6B [19] = target: T2, ATF6B; test: as above
FOS [20] = target: T4, FOS; test: FRET or BRET; direct-binding FRET in 384-well plates; rhodamine-labelled design (acceptor) titrated 0 to 1 uM into 10 nM fluorescein-labelled bZIP (donor); 150 mM KCl, 50 mM potassium phosphate pH 7.4, 0.1% Tween-20, 0.1% BSA; 4 °C
[21] = target: Activating Transcription Factor (ATF) 3 (human) (UniProt P18847); test: as above
DBP (human) = DBP (human) (UniProt Q10586); test: as above
Sequence of DBP (human) (Q10586 whole entry): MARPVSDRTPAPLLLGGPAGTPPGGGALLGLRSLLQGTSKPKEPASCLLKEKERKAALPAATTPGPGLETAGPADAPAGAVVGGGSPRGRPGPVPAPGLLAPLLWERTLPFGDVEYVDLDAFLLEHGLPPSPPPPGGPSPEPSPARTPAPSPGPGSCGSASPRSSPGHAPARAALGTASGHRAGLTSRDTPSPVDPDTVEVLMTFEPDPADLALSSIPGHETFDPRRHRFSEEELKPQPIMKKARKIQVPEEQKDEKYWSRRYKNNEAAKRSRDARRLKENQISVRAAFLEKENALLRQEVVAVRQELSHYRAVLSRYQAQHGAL

[22] = target: off-target bZIPs of XBP1-d1 (among the 32 C-terminally fluoresceinated human bZIPs tested) (human); test: FRET or BRET; direct-binding FRET at 37°C; 10 nM fluorescein-labelled bZIP (donor), rhodamine-labelled design (acceptor) titrated 0 to 1 μM; 150 mM KCl, 50 mM potassium phosphate pH 7.4, 0.1% Tween-20, 0.1% BSA
[23] = target: T6, X-box binding protein 1 (XBP1) bZIP construct, C-terminally fluoresceinated (human, UniProt P17861 70-133, fluorescein at the C-terminus); test: as above; conditions: both partners purified
T6 construct: source: previously described, donated by A.W. Reinke [18]
T6 sequence (looked up): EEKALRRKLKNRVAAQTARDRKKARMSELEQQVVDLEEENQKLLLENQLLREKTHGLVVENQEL

Kd (MAF [1]): > 5000 nM
Kd (ATF4 (human) [2]): 8.5 nM
Kd (MAFF (human) [3]): > 5000 nM
Kd (ATF6B [4]): > 5000 nM
Kd (MAFB [5]): > 5000 nM
Kd (FOS [6]): > 5000 nM
Kd (BATF (human)): > 5000 nM
Kd (BATF2 (human)): > 5000 nM
Kd (MAFF (human) [7]): 116 nM
Kd (MAFB [8]): > 5000 nM
Kd (MAF [9]): > 5000 nM
Kd [10]: > 5000 nM
Kd (ATF5 (human)): 2.9 nM and 6.9 nM
Kd (JUN [11]): > 5000 nM
Kd (MAFF (human) [12]): > 5000 nM
Kd (ATF2 (human)): > 5000 nM
Kd (ATF6B [13]): > 5000 nM
B1: ATF5-d1 labeled at the N-terminus (designed binder)
chain: GESKEYKKGSGSC(Rhodamine Red C2‑maleimide)GKRIAYLRQRIAELRNENHVLESRIQRMEKEKDALQQDRDHLEYEL

Kd (ATF4 (human) [14]): 557 nM and 529 nM and 543 nM
Kd (JUN [15]): 5.3 nM and 5.5 nM and 6.6 nM
Kd (JUN [16]): 1.1 nM and 1.2 nM and 1 nM
Kd (FOS [6]): > 5000 nM
Kd (MAFG): > 5000 nM
Kd (CREB1 (human)): > 5000 nM
Kd (NFE2 (human)): > 5000 nM
Kd (NFE2L3 (human)): > 5000 nM
Kd [17]: > 5000 nM
Kd [18]: > 5000 nM
Kd (MAFF (human) [7]): > 5000 nM
Kd (ATF6B [19]): > 5000 nM
Kd (FOS [20]): > 5000 nM
Kd [21]: > 5000 nM
Kd (DBP (human)): > 5000 nM
B2: JUN-d1 labeled at the C-terminus (designed binder)
chain: GESKEYKKGSGSSIAATLEKEEANLEKMNKKLAAEIESLLKEKDKLESVLNYHEGC
modifications: also: Cys56: Rhodamine Red C2-maleimide or fluorescein-5-maleimide, by assay

Kd [22]: > 5000 nM
Kd [23]: 172 ± 65 nM
B3: XBP1-d1, rhodamine-labelled at the C-terminus (designed binder)
chain: GESKEYKKGSGSEREAQLENRVAHLKEKNQELKAQNLHLKEALSEAQNRNQELKNDAGC(Rhodamine Red C2‑maleimide)
notes: solubility linker after the His tag; added at the C-terminus for labelling; built from heptads of native and previously designed bZIPs; source: E. coli RP3098, purified (Ni-NTA under denaturing conditions, reverse-phase HPLC)
